This is an account of results in patent US20250027068.

Where a chain is given by its changes, count along the chain named.

B1: PRT-609 (protein)
chain: MQITSVWTKGVTPLTPEQFRYNNEDVIHAPYLAHQGWYDITKAFDRGDNLLCGAATAGNMLHWWFDQNKTEIEAYLSKHPEKQKIIFNNQELFDLKAAIDTKDSQTNSQLFNYFRDKAFPNLSARQGGVMPDLVLDMFINGYYLNVFKTQSTDVNRPYQDKDKRGGIFDAVFTRGDQTTLLTARHDLKNKGLNDISTIIKQELTEGRALALSHTYANVSISHVINLWGADFNAEGNLEAIYVTDSDADEKIGMKKYFVGINAHGHVAISAKKIEGENIGAQVLGLFTLSSGKDIWQKLSLEHHHHHH
B2: PRT-637 (protein)
chain: B1 chain with R46G, N49G, G127K, D248G, E249N, K250G
B3: PRT-643 (protein)
chain: MQITSVWTKGVTPLTPEQFRYNNEDVIHAPYLAHQGWYDITKAFDGKDNLLCGAATAGNMLHWWFDQNKTEIEAYLSKHPEKQKIIFNNQELFDLKAAIDTKDSQTNSQLFNYFRDKAFPNLSARQLGVMPDLVLDMFINGYYLNVFKTQSTDVNRPYQDKDKRGGIFDAVFTRGDQTTLLTARHDLKNKGLNDISTIIKQELTEGRALALSHTYANVSISHVINLWGADFNAEGNLEAIYVTDSDANASIGMKKYKVGYNKDGRVAISAYKIEGENIGAQVLGLFTLSSGKDIWQKLSLEHHHHHH
B4: PRT-624 (protein)
chain: MQITSVWTKGVTPLTPEQFRYNNEDVIHAPYLAHQGWYDITKAFDGKDNLLCGAATAGNMLHWWFDQNKTEIEAYLSKHPEKQKIIFNNQELFDLKAAIDTKDSQTNSQLFNYFRDKAFPNLSARQLGVMPDLVLDMFINGYYLNVFKTQSTDVNRDYDDKDKRGGIFDDVFGKGDQTTLLTARHDLKNKGLNDISTIIKQELTEGRALALSHTYANVSISHVINLWGADFNAEGNLEAIYVTDSDANASIGMKKYFVGINAHGHVAISAKKIEGENIGAQVLGLFTLSSGKDIWQKLSLEHHHHHH
B5: PRT-658 (protein)
chain: B4 chain with K96R, A97K, D100N, Q109A, D157P, D159Q, D170A, G173T, K174R
B6: PRT-644 (protein)
chain: B3 chain with K257Y, Y260K, K262A, D263S, R265H, Y271K, G275D
B7: PRT-646 (protein)
chain: B4 chain with D157P, D159Q, D170A, G173T, K174R, A183E, R184T, H185T, K188Y, N189G
B8: PRT-647 (protein)
chain: B4 chain with D157P, D159Q, D170A, G173T, K174R, A183N, H185Y, K188Y, N189D
B9: PRT-625 (protein)
chain: B4 chain with D157P, Y158E, D170H, G173T, K174R, T178S
B10: PRT-661 (protein)
chain: B4 chain with H34N, A43T, A97K, D157P, D159Q, D170A, G173T, K174R, A247S, H263A
B11: PRT-692 (protein)
chain: MQITSVWTKGVTPPTPEQFRYNNEDVIHAPYLPNQGWYDITKTFNGGDNLLCGAATAGNMLHWWFDQNKTEIEAYLSKYPEKQKIIFNNQELFDLRAAINSKDSQTNSQLFNYFRDKAFPNLSARQLGVMPDLVLDMFINGYYLNVFKTQSTDVNRPYQDPDKRGGIFDDVFKEGDQTTLLTARHDLKNGTLNDISTLIKQELQSGKALALSHTYANVSISHVINLWGADFNAEGNLEAIYVTDSDANQSIGMKKYKVGVNAHGKVAISAKKIEGENIGAQVLGLFTLSSGKEIWQKLSLEHHHHHH
B12: PRT-696 (protein)
chain: MTITSVWTKGVTPPTPEDFRYNNEDVLHAPYVPNQGWYDITKTFDGGDNLLCGAATAGNMLHWWFDQNKEEIERYLKKYPEKQKIIFNNQELFDVRAAINSKDSQTNSKLFNYFRDKAFPNLSARQLGVMPDLVLDMFINGYYLNLGKTQSTDVNRPYQDPDKRGGIFDDVFKEGDQTTLLTARHDLKNGGLNEISDLIKQELQSGKALALSHTYANVRINHVINLWGADFDAEGNLIAIYVTDSDANQSIGMKKYKVGVNANGKVAISAKKIEGDNIGAQVLGLFTLSTGQEIWQKLSLEHHHHHH
B13: PRT-686 (protein)
chain: MQITSVWTKGVTPLTPEQFTYNNEDVIHAPYIANQGWYDITKTFNGKDNLLCGAATAGNMLHWWFDQNKTEIENYLKKHPEKQKIIFNNQELFDLRKAINTKDSQTNSALFNYFRDKAFPNLSARQLGVMPDLVLDMFINGYYLNVFKTQSTDVNRPYQTKDKRGGIFDHVFTRGDQSTLLTARHDLKNKTLNEISDIIKQELTEGKALALSHTYANVSISHVINLWGADFNAEGNLEAIYVTDSDANASIGMKKYFVGVNSHGKVAISAKKIEDENIGAQVLGLFTLSSGQDIWEQLSLEHHHHHH
B14: PRT-623 (protein)
chain: MQITTVWTKGVTPLTPEQFRYNNEDVIHAPYLAHQGWYDITKAFDGKDNLLCGAATAGNMLHWWFDQNKTEIEAYLSKHPEKQKIIFNNQELFDLKAAIDTKDSQTNSQLFNYFRDKAFPNLSARQLGVMPDLVLDMFINGYYLNVFKTQSTDVNRPYQDKDKRGGIFDAVFTRGDQTTLLTARHDLKNGTLNEISQIIKQELQSGRALALSHTYANVSISHVINLWGADFNAEGNLIAIYVTDSDANASIGMKKYFVGINAHGHVAISAKKIEGENIGAQVLGLFTLSSGKDIWQKLSLEHHHHHH
B15: PRT-549 (protein)
chain: MANQEIRYSEDTPSHITSVWTKGVTPPTQFIQNEDVLHAPYIANQGWYDITKTFNGKDDLLCGAATAGNMLHWWFDQNKEQIEAYLKKYPEKQKINFNGEQMFDVKEAIDTKDSQTDSALFNYFKDKAFPYLSTKHLGVFPDHVIDMFINGYRLSLTNHGPTPVKNQTKDPRGGIFDAVFTRGDQSKLLTARHDFKEKTLKEISQLIKQELTEGKALGLSHTYANVRINHVINLWGADFNAEGNLEAIYVTDSDSNASIGMKKYYVGVNAAGKVAISAKEIEGDNIGAQVLGLFTLSTGQDIWQQTNLEHHHHHH
B16: PRT-687 (protein)
chain: MQITSVWTKGVTPLTPEQFRYNNEDVIHAPYKPHQGWYDITKTFNGKDNLLCGAATAGNMLHWWFDQNKTEIEAYLKKYPEKQKIIFNNQKLFDLRKAINTKDSQTNSALFNYFRDKAFPNLSARQLGVMPDLVLDMFINGYYLNVFKTQSTDVNRPYQTRDKRGGIFDHVFGRGDQTTLLTARHDLKNKTLNEISQIIKQELSEGKALALSHTYANVSISHVINLWGADFNAEGNLEAIYVTDSDANAKIGMKKYYVGKNAHGKVAISAKKIEGENIGAQVLGLFTLSSGKDIWQKLSLEHHHHHH

In this data set the target is pooled human IgG (human IgG1, 2, 3 and 4).
In the case of B1, the Enzyme Activity Endpoint Assay (purified): Fab′2 stood at 460 ng/µL, the Enzyme Activity Endpoint Assay (purified): Fc came out at 216 ng/µL, the Enzyme Activity Endpoint Assay (purified): IgG turned out to be 702 ng/µL and the Enzyme Activity Endpoint Assay (purified): scIgG came out at 726 ng/µL.
Consider B2, for which the Enzyme Activity Endpoint Assay (purified): Fab′2 came out at 278 ng/µL, the Enzyme Activity Endpoint Assay (purified): Fc turned out to be 188 ng/µL, the Enzyme Activity Endpoint Assay (purified): IgG is 464 ng/µL and the Enzyme Activity Endpoint Assay (purified): scIgG turned out to be 602 ng/µL.
For B3, the Enzyme Activity Endpoint Assay (purified): Fab′2 was 664 ng/µL, the Enzyme Activity Endpoint Assay (purified): Fc is 409 ng/µL, the Enzyme Activity Endpoint Assay (purified): IgG stood at 33 ng/µL and the Enzyme Activity Endpoint Assay (purified): scIgG is 226 ng/µL.
On the same counts, the results for B4 are 89 ng/µL, 251 ng/µL, 96 ng/µL and 626 ng/µL.
On the same counts, the results for B5 are 822 ng/µL, 473 ng/µL, 0 ng/µL and 317 ng/µL.
Protein B6 showed an Enzyme Activity Endpoint Assay (purified): Fab′2 of 882 ng/µL, an Enzyme Activity Endpoint Assay (purified): Fc of 518 ng/µL, an Enzyme Activity Endpoint Assay (purified): IgG of 0 ng/µL and an Enzyme Activity Endpoint Assay (purified): scIgG of 355 ng/µL.
Turning to B7, the Enzyme Activity Endpoint Assay (purified): Fab′2 was 582 ng/µL, the Enzyme Activity Endpoint Assay (purified): Fc amounted to 435 ng/µL, the Enzyme Activity Endpoint Assay (purified): IgG stood at 39 ng/µL and the Enzyme Activity Endpoint Assay (purified): scIgG is 635 ng/µL.
The protein B8 gave an Enzyme Activity Endpoint Assay (purified): Fab′2 of 777 ng/µL, an Enzyme Activity Endpoint Assay (purified): Fc of 465 ng/µL, an Enzyme Activity Endpoint Assay (purified): IgG of 0 ng/µL and an Enzyme Activity Endpoint Assay (purified): scIgG of 330 ng/µL.
On the same counts, the results for B9 are 451 ng/µL, 405 ng/µL, 78 ng/µL and 531 ng/µL.
The protein B10 displayed an Enzyme Activity Endpoint Assay (purified): Fab′2 of 187 ng/µL, an Enzyme Activity Endpoint Assay (purified): Fc of 121 ng/µL, an Enzyme Activity Endpoint Assay (purified): IgG of 0 ng/µL and an Enzyme Activity Endpoint Assay (purified): scIgG of 70 ng/µL.
For B11 the same measures were 442 ng/µL, 44 ng/µL, 429 ng/µL and 38 ng/µL.
In the case of B12, the Enzyme Activity Endpoint Assay (purified): Fab′2 came to 58 ng/µL, the Enzyme Activity Endpoint Assay (purified): Fc was 0 ng/µL, the Enzyme Activity Endpoint Assay (purified): IgG was determined as 1020 ng/µL and the Enzyme Activity Endpoint Assay (purified): scIgG was found to be 19 ng/µL.
In turn, B13 showed an Enzyme Activity Endpoint Assay (purified): Fab′2 of 608 ng/µL, an Enzyme Activity Endpoint Assay (purified): Fc of 355 ng/µL, an Enzyme Activity Endpoint Assay (purified): IgG of 0 ng/µL and an Enzyme Activity Endpoint Assay (purified): scIgG of 252 ng/µL.
With B14, the Enzyme Activity Endpoint Assay (purified): Fab′2 is 433 ng/µL, the Enzyme Activity Endpoint Assay (purified): Fc worked out at 260 ng/µL, the Enzyme Activity Endpoint Assay (purified): IgG worked out at 0 ng/µL and the Enzyme Activity Endpoint Assay (purified): scIgG turned out to be 157 ng/µL.
On the same counts, the results for B15 are 725 ng/µL, 491 ng/µL, 0 ng/µL and 279 ng/µL.
For the protein B16, the Enzyme Activity Endpoint Assay (purified): Fab′2 stood at 738 ng/µL, the Enzyme Activity Endpoint Assay (purified): Fc was 420 ng/µL, the Enzyme Activity Endpoint Assay (purified): IgG was 0 ng/µL and the Enzyme Activity Endpoint Assay (purified): scIgG is 295 ng/µL.
